Laboratory results published in PMC6003631.

Key:
[1] = target: human μ receptor-Rluc (human) (UniProt P35372)
rat HA-μ receptor (rat) = rat HA-μ receptor (rat) (UniProt P33535)
Sequence of UniProt P33535 (P33535 whole entry): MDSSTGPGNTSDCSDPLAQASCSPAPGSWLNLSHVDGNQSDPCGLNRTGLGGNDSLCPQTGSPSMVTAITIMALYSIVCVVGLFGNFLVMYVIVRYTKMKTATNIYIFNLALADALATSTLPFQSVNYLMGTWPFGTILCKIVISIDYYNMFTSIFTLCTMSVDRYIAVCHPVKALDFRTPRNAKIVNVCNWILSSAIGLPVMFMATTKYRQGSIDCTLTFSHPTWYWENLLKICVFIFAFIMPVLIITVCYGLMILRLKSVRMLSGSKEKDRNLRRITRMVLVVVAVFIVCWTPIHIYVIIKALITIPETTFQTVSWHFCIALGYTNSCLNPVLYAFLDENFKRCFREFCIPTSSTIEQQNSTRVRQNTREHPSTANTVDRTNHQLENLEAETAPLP

Sequence of UniProt P35372 (P35372 whole entry): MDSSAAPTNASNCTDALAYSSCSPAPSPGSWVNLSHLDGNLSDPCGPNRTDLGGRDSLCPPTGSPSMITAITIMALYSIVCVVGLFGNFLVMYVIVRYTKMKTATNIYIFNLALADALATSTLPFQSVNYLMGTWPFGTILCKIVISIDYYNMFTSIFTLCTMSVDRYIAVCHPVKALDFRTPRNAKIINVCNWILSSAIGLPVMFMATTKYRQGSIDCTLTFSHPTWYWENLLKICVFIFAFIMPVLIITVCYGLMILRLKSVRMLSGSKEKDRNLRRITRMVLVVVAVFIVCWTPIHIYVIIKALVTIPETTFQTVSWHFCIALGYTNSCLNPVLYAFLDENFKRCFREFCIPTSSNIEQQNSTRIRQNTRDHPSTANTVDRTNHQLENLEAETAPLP

D-Ala^2, N-MePhe^4, Gly-ol-enkephalin (peptide)
arrestin-3 recruitment to the μ receptor (BRET between human μ receptor-Rluc and arrestin-3-GFP) in HEK 293 cells, EC50 [1]: 1.2 µM | Gi activation (decrease of the BRET signal between Gαi1-RlucII and GFP10-Gγ2) in HEK 293 cells expressing rat HA-μ receptors, EC50 (rat HA-μ receptor (rat)): 0.39 µM | Gi activation (decrease of the BRET signal between Gαi1-RlucII and GFP10-Gγ2) in HEK 293 cells expressing rat HA-μ receptors, maximum response (BRET ratio) (rat HA-μ receptor (rat)): 12.4 BRET ratio
